According to article PMC11555115:

Tests used:
[1] = molecular target: His-tagged linear tetra-ubiquitin chains (TR-FRET with SHARPIN NZF) (UniProt P0CG48); experiment: TR-FRET assay; details: DMSO; mixed and incubated for 1 h; parent: 100; read off a plot; scale: relative fluorescence intensity
[2] = molecular target: Sm-di-ubiquitin (GA mutant) (UniProt P0CG48); experiment: NanoBiT assay in HEK293T cells; details: 1 h, transient transfection, cultured 24 h, read off a plot, scale: relative luminescent intensity

Substance	percent of parent [1]	percent of parent ([2]; DMSO, parent: 100)	response ([2]; FSL0717 10 μM, parent: est. 60)	response ([2]; FSL0720 10 μM, parent: est. 50)
GST-tagged SHARPIN NZF T351A; F352A	38			
Lg-HOIL-1L NZF WT (from UniProt Q9WUB0) TR-AA		52	37	43
